Where two headings read alike, the source gives them in different places.
How the values were obtained:
AUC [1] = target: the molecule itself; experiment: AUC
AUC [2] = target: the molecule itself; experiment: AUC; remark: listed apart in the source
AUC [3] = target: the molecule itself; experiment: AUC; remark: listed apart in the source
L1 ORF1p [4] = target: T1, L1 ORF1p (Homo sapiens (L1.3, Ta-1 subfamily of …, UniProt Q9UN81)); experiment: filter binding
L1 ORF1p [5] = target: T1, L1 ORF1p; experiment: EMSA
L1 ORF1p [6] = target: T1, L1 ORF1p; experiment: EMSA; remark: listed apart in the source
L1 ORF1p [7] = target: T1, L1 ORF1p; experiment: EMSA; remark: listed apart in the source
L1 ORF1p [8] = target: T1, L1 ORF1p; experiment: filter binding; remark: listed apart in the source
L1 ORF1p [9] = target: T1, L1 ORF1p; experiment: filter binding; remark: listed apart in the source
L1 ORF1p [10] = target: T1, L1 ORF1p; experiment: filter binding; remark: listed apart in the source

B1: human L1 ORF1 protein (ORF1p), full length, expressed in insect cells (natural protein)
chain: GMGKKQNRKTGNSKTQSASPPPKERSSSPATEQSWMENDFDELREEGFRRSNYSELREDIQTKGKEVENFEKNLEECITRITNTEKCLKELMELKTKARELREECRSLRSRCDQLEERVSAMEDEMNEMKREGKFREKRIKRNEQSLQEIWDYVKRPNLRLIGVPESDVENGTKLENTLQDIIQENFPNLARQANVQIQEIQRTPQRYSSRRATPRHIIVRFTKVEMKEKMLRAAREKGRVTLKGKPIRLTADLSAETLQARREWGPIFNILKEKNFQPRISYPAKLSFISEGEIKYFIDKQMLRDFVTTRPALKELLKEALNMERNNRYQPLQNHAKM
- stoichiometry N (AUC [1]): 3

B2: M128p, N-terminal deletion mutant of human L1 ORF1p (residues 128-338) (domain or fragment)
chain: GMKREGKFREKRIKRNEQSLQEIWDYVKRPNLRLIGVPESDVENGTKLENTLQDIIQENFPNLARQANVQIQEIQRTPQRYSSRRATPRHIIVRFTKVEMKEKMLRAAREKGRVTLKGKPIRLTADLSAETLQARREWGPIFNILKEKNFQPRISYPAKLSFISEGEIKYFIDKQMLRDFVTTRPALKELLKEALNMERNNRYQPLQNHAKM
- Kd (AUC [2]): ~3.4 µM
- stoichiometry N (AUC [2]): 3
- Kd (AUC [3]): ~35 µM

Binder: ACCUGCACAAUGUGCACAUGAAAAAAAAAA (ssRNA) [r30_3'utr-a]
- apparent K (half saturation) (L1 ORF1p [4]): ~1 nM

B3: d120_c (ssDNA)
DNA: AGCGAGTTGATGTTAGACTGTGTACTTTTTGCGAGTTGATGTTAGACTGTGTACTTTTTAAGCGAGTTGATGTTAGACTGTGTACTTTTTGCGAGTTGATGTTAGACTGTGTACTTTTTA
- binding result (L1 ORF1p [5]): binds

B4: d53_pT-b (ssDNA)
DNA: GAGAGATTTTTTTTTTTTTTTTTTTTTTTTTTTTTTTTTTTTTTTTCCAGAGC
- binding result (L1 ORF1p [6]): binds

B5: d58_pT-b (ssDNA)
DNA: GAGAGATTTTTTTTTTTTTTTTTTTTTTTTTTTTTTTTTTTTTTTTTTTTTCCAGAGC
- binding result (L1 ORF1p [7]): binds

B6: d60_orf1 (ssDNA)
DNA: GATCATGCAGGACAGTCGGATCGCAACCTGATTTACTGTGTCATATAGTACGTGATTCAG
- binding result (L1 ORF1p [6]): binds

B7: r60_U (ssRNA)
RNA: UUUUUUUUUUUUUUUUUUUUUUUUUUUUUUUUUUUUUUUUUUUUUUUUUUUUUUUUUUUU
- binding result (L1 ORF1p [6]): binds

B8: d60_c (ssDNA)
DNA: AGCGAGTTGATGTTAGACTGTGTACTTTTTGCGAGTTGATGTTAGACTGTGTACTTTTTA
- apparent K (half saturation) (L1 ORF1p [4]): ~1 nM

B9: d29:d29_c perfect duplex (dsDNA)
DNA 1: AAAAAGTACACAGTCTAACATCAACTCGC
DNA 2: GCGAGTTGATGTTAGACTGTGTACTTTTT
- binding signal (L1 ORF1p [8]): ~8 fold lower affinity than mismatched duplex N10

B10: d29:d29_cmm mismatched duplex (dsDNA)
DNA 1: AAAAAGTACACAGTCTAACATCAACTCGC
DNA 2: GCGAGTTGACGTCAGACCGTGCACTTTTT
- binding signal (L1 ORF1p [9]): ~1 fold of ssDNA d29_c affinity

Binder: GCGAGTTGATGTTAGACTGTGTACTTTTT (ssDNA) [d29_c]
- binding signal (L1 ORF1p [10]): ~1 fold of mismatched duplex affinity
